According to article PMC4164303 (Science (New York, N.Y.), 2014):

Target: the molecule itself
Test: AUC

B1: EC1–2 of mouse E-cadherin (domain or fragment)
chain: DWVIPPISCPENEKGEFPKNLVQIKSNRDKETKVFYSITGQGADKPPVGVFIIERETGWLKVTQPLDREAIAKYILYSHAVSSNGEAVEDPMEIVITVTDQNDNRPEFTQEVFEGSVAEGAVPGTSVMKVSATDADDDVNTYNAAIAYTIVSQDPELPHKNMFTVNRDTGVISVLTSGLDRESYPTYTLVVQAADLQGEGLSTTAKAVITVKD
In the case of B1, the Kd is reported as ~175 µM.
